Test results from publication PMC2924388.

What was measured:
[1] = target: HIV-1 M-type (NL4.3) capsid N-terminal domain (HIV-1 M-type (NL4.3)) (UniProt P12493); assay: ITC; MicroCal ITC200; cyclophilin (typical concentration 1.4 mM) in the syringe, capsid (typical concentration 120 µM) in the cell; 50 mM KPO4 pH 7.4, 100 mM NaCl, 1 mM DTT; 15°C; one-state model
[2] = target: HIV-2 capsid N-terminal domain with an alanine inserted at position 88 (HIV-2 (ROD)); assay: as above
[3] = target: HIV-1 M-type (NL4.3) capsid N-terminal domain (HIV-1 M-type (NL4.3)) (UniProt P12493)
[4] = target: HIV-2 (ROD) capsid N-terminal domain (HIV-2 (ROD))
[5] = target: HIV-2 (ROD) capsid N-terminal domain (HIV-2 (ROD)); assay: ITC; MicroCal ITC200; cyclophilin (typical concentration 1.4 mM) in the syringe, capsid (typical concentration 120 µM) in the cell; 50 mM KPO4 pH 7.4, 100 mM NaCl, 1 mM DTT; 15°C; one-state model

Substance | Kd [1] [µM] | Kd [2] [µM] | restriction of the infectivity of the HIV-1 vector in CRFK cells expressing whole Mafa TRIMCyp2 Cyp K143E; partially rescued by 5 µM cyclosporine (orders of magnitude) [3] | restriction of the infectivity of the HIV-2 vector in CRFK cells expressing whole Mafa TRIMCyp2 Cyp K143E; completely rescued by 5 µM cyclosporine (orders of magnitude) [4] | Kd [5] [µM]
CypA domain of Macaca fascicularis TRIMCyp2 (Mafa TRIMCyp2) (domain or fragment) | 12 | 207 |  |  | 
CypA domain of Mafa TRIMCyp2 with Cyp K143E (K446E in TRIMCyp) (domain or fragment) | 12 | 9 | 2 | 2 | 13
